Assay results from US20140057807A1 (UNIVERSITY OF CHICAGO, published 2014).

B1: SEQ ID NO 199 (designed binder)
chain: PLSPPTNLHLEANPDTGVLTVSWERSTTPDITAYVIYTYSESDGRVLEEVVHADQSSCTFDNLSPGLRYSVKVSTVYYSYAYPISDTIIP
B2: SEQ ID NO 201 (designed binder)
chain: VSDVPRDLEVVAATPTSLLISWDAPAVTVRGYYISYYYHSTRDSQEFTVPGSKSTATISGLKPGVSYYVGVGAVWKKDYYFPISINYRT
B3: SEQ ID NO 205 (designed binder)
chain: VSDVPRDLEVVAATPTSLLISWDAPAVTVRIYSIYYYSYVMRGYYFQEFTVLGSKSTATISGLKPGVNYDINVQAVYHRGWRYPISINYRT
B4: SEQ ID NO 202 (designed binder)
chain: VSDVPRDLEVVAATPTSLLISWDAPAVTVRYYYILYGDYNAYMDYAGQEFTVPGSKSTATISGLKPGVGYVEIDVYAVRTSEEQPISINYRT
B5: SEQ ID NO 193 (designed binder)
chain: PLSPPTNLHLEANPDTGVLTVSWERSTTPDITMYGIVTIYTRYYSLEEVVHADQSSCTFDNLSPGLIYWVYVLTVYYSWYRPISDTIIP
B6: SEQ ID NO 206 (designed binder)
chain: VSDVPRDLEVVAATPTSLLISWDAPAVAVRAYSIDYYHDNGDGTQEFTVPGSKSTATISGLKPGVTYGILVYAVVSNMGIPISINYRT
B7: SEQ ID NO 198 (designed binder)
chain: PLSPPTNLHLEANPDTGVLTVSWERSTTPDITVYYIYTYTYNADLILEEVVHADQSSCTFDNLSPGLIYSVYVGTVASDDGRPISDTIIP
B8: SEQ ID NO 194 (designed binder)
chain: PLSPPTNLHLEANPDTGVLTVSWERSTTPDITTYVIDTGAAVNYVLEEVVHADQSSCTFDNLSPGLQYSVDVVVTVWYSWYMPISDTIIP
B9: SEQ ID NO 207 (designed binder)
chain: VSDVPRDLEVVAATPTSLLISWDAPAVTVRSYYIGYSAYDEYGGRQEFTVPGSKSTATISGLKPGVSYSINVFAVYTMTGRAPISINYRT
B10: SEQ ID NO 192 (designed binder)
chain: PLSPPTNLHLEANPDTGVLTVSRERSTTPDITTYSIYTHSGALYVLEEVVHADQSSCTFDNPSPGLNYNVSVSTVHSRWRYGPISDTIIP
B11: SEQ ID NO 204 (designed binder)
chain: VSDVPRDLEVVAATPTSLLISWDAPAVTVRYYWIIYWEAWEYVQAQEFTVPGSKSTATISGLKPGVHYGIMVSAVSGEQPWYPISINYRT
B12: SEQ ID NO 191 (designed binder)
chain: PLSPPTNLHLEANPDTGVLTVSWERSTTPDITRYYIRTSYVRHGRLEEVVHADQSSCTFDNLSPGLYYNVSVSTVGYYYMLPISDTIIP
B13: SEQ ID NO 195 (designed binder)
chain: PLSPPTNPHLEANPDTGVLTVSWERSTTPDITTYWIGTYYSADERLEEVVHADQSSCTFDNLSPGLYYAVVVGTVGVWYRVAPISDTIIP
B14: SEQ ID NO 203 (designed binder)
chain: VSDVPRDLEVVAATPTSLLISWDAPAVTVRAYQIRYAYYSVGRQEFTVPGSKSTATISGLRPGVKYHISVYAVNGGMVTDPISINYRT
B15: SEQ ID NO 197 (designed binder)
chain: PLSPPTNLHLEASPDTGVLTVSWERSTTPDITTYLILTYLGYSRVLEEVVHADQSSCTFDNLSPGLWYMVYVDTVGRVPYIGPISDTIIP
B16: SEQ ID NO 196 (designed binder)
chain: PLSPPTNLHLEANPDTGVLTVSWERSTTPDITYYYIHTYYWKHWQSLEEVVHADQSSCTFDNLSPGLKYGVWVSTVYRVVYYPISDTIIP

These binders were tested against T1, human serum albumin (human, UniProt P02768 25-609) (assay: cradle library selection hit).
T1 construct: also called HSA
T1 sequence (P02768 25-609 limits assumed): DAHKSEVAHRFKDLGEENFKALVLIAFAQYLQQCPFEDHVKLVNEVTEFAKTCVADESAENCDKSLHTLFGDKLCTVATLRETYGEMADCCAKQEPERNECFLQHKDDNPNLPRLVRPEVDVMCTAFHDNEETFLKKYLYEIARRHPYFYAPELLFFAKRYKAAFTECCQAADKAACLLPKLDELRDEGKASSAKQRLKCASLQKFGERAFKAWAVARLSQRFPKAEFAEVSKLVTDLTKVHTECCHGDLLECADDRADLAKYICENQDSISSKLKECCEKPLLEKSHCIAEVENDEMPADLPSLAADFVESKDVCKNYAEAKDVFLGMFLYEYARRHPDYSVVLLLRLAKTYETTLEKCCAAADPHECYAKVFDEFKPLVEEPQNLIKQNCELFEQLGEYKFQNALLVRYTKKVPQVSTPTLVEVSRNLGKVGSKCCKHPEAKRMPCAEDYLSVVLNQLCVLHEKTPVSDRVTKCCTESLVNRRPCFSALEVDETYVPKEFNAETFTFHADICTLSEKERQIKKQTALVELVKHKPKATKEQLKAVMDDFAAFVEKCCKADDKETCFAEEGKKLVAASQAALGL

Binding result, binds:
B1
B2
B3
B4
B5
B6
B7
B8
B9
B10
B11
B12
B13
B14
B15
B16
